From the supplement of paper PMC10567573

Experiment: protein stability index of a GFP-peptide fusion (GPS, HEK-293T) (PSI 1-6); higher = more stable
Settings: c terminus: native
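Also: lentivirally expressed fusion library, cells FACS-sorted into six equal-sized GFP/DsRed ratio bins, PSI computed from sequencing read fractions per bin weighted by bin number.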

B1: BEX2 addY (peptide)
chain: HSLRAVSTDPPHHDHHDEFCLMPY
protein stability index (parent: NP_116010.1): 3.52

B2: POLD2 addY (peptide)
chain: CQPISFSGFGAEDDDLGGLGLGPY
protein stability index (parent: NP_006221.1): 2.32

B3: SNF8 addY (peptide)
chain: LPALFTDLYSQEITAEEAREALPY
protein stability index (parent: NP_009172.2): 4.33

B4: TRPA1 addY (peptide)
chain: EQRNSRWNTVLRAVKAKTHHLEPY
protein stability index (parent: NP_015628.1): 4.2

B5: PSMB5 addY (peptide)
chain: DGWIRVSSDNVADLHEKYSGSTPY
protein stability index (parent: NP_002788.1): 3.43
